Assay results reported in patent US20190202920A1 (F STAR BETA, published 2019).

How the values were obtained:
[1] = target: T1, cell surface EGFR on human cancer cell lines (A431NS, MDA-MB-468, U87MG) (human, UniProt P00533 25-1210); assay: flow cytometry, blocking of biotinylated EGF binding to MDA-MB-468 cells
T1 construct: whole, on cells; The cell line of each entry is named under assay; also called EGFR on A431NS cells; EGFR on MDA-MB-468 cells

[2] = target: T2, His-tagged human EGFR (Sino Biological) (human, UniProt P00533 25-645); assay: SPR (BIAcore T200), mAb^2 captured on anti-human Fab chip, His-tagged human EGFR as analyte, 1:1 fit
T2 construct: also called His-tagged EGFR

[3] = target: T3, cell surface EGFR on HCC827 cells (E746-A750 deletion) (UniProt P00533 25-1210); assay: flow cytometry on HCC827 cells
T3 construct: whole, on cells; Residues E746-A750 are deleted; a deletion cannot be written as a substitution

[4] = target: T4, cell surface EGFR on NCI-H1975 cells (mutated EGFR L858R and T790M) (UniProt P00533 25-1210, limits assumed); assay: flow cytometry on NCI-H1975 cells
T4 construct: whole, on cells

Row | IC50 [1] [nM] | Kd [2] [nM] | EC50 [3] [nM] | EC50 [4] [nM] | Binder
1 | 0.71 | 3.5 | – | – | mAb^2 FI/FS1-60 (bispecific antibody, human IgG1, kappa) heavy: QVQLVQPGAEVKKPGTSVKLSCKASGYTFTTYWMHWVRQAPGQGLEWIGEINPTNGHTNYNQKFQGRATLTVDKSTSTAYMELSSLRSEDTAVYYCARNYVGSIFDYWGQGTLLTVSSASTKGPSVFPLAPSSKSTSGGTAALGCLVKDYFPEPVTVSWNSGALTSGVHTFPAVLQSSGLYSLSSVVTVPSSSLGTQTYICNVNHKPSNTKVDKRVEPKSCDKTHTCPPCPAPELLGGPSVFLFPPKPKDTLMISRTPEVTCVVVDVSHEDPEVKFNWYVDGVEVHNAKTKPREEQYNSTYRVVSVLTVLHQDWLNGKEYKCKVSNKALPAPIEKTISKAKGQPREPQVYTLPPSRDELDEGGPVSLTCLVKGFYPSDIAVEWESTYGPENNYKTTPPVLDSDGSFFLYSRLTVSHWRWYSGNVFSCSVMHEALHNHYTQKSLSLSPG light: DIVMTQSPDSLAMSLGERVTLNCKASENVVSYVSWYQQKPGQSPKLLIYGASNRESGVPDRFSGSGSATDFTLTISSVQAEDVADYHCGQSYNYPYTFGQGTKLEIKRTVAAPSVFIFPPSDEQLKSGTASVVCLLNNFYPREAKVQWKVDNALQSGNSQESVTEQDSKDSTYSLSSTLTLSKADYEKHKVYACEVTHQGLSSPVTKSFNRGEC
2 | 0.45 | 3.6 | – | – | mAb^2 RI/FS1-60 (bispecific antibody, human IgG2, kappa) heavy: QVQLQESGPGLVKPSETLSLTCTVSGGSISIYYWSWIRQPPGKGLEWIGYVYYSGSTNYNPSLKSRVTISVDTSKNQFSLKLNSVTAADTAVYYCARGGYDFWSGYFDYWGQGTLVTVSSASTKGPSVFPLAPCSRSTSESTAALGCLVKDYFPEPVTVSWNSGALTSGVHTFPAVLQSSGLYSLSSVVTVPSSNFGTQTYTCNVDHKPSNTKVDKTVERKCCVECPPCPAPPVAGPSVFLFPPKPKDTLMISRTPEVTCVVVDVSHEDPEVQFNWYVDGVEVHNAKTKPREEQFNSTFRVVSVLTVVHQDWLNGKEYKCKVSNKGLPAPIEKTISKTKGQPREPQVYTLPPSRDELDEGGPVSLTCLVKGFYPSDIAVEWESTYGPENNYKTTPPVLDSDGSFFLYSRLTVSHWRWYSGNVFSCSVMHEALHNHYTQKSLSLSPG light: not shown
3 | – | 1.8 | 3.56 | 2.16 | mAb^2 RI/FS1-65 (bispecific antibody, human IgG2, kappa) heavy: QVQLQESGPGLVKPSETLSLTCTVSGGSISIYYWSWIRQPPGKGLEWIGYVYYSGSTNYNPSLKSRVTISVDTSKNQFSLKLNSVTAADTAVYYCARGGYDFWSGYFDYWGQGTLVTVSSASTKGPSVFPLAPCSRSTSESTAALGCLVKDYFPEPVTVSWNSGALTSGVHTFPAVLQSSGLYSLSSVVTVPSSNFGTQTYTCNVDHKPSNTKVDKTVERKCCVECPPCPAPPVAGPSVFLFPPKPKDTLMISRTPEVTCVVVDVSHEDPEVQFNWYVDGVEVHNAKTKPREEQFNSTFRVVSVLTVVHQDWLNGKEYKCKVSNKGLPAPIEKTISKTKGQPREPQVYTLPPSRDELDEGGPVSLTCLVKGFYPSDIAVEWESTYGPENNYKTTPPVLDSDGSFFLYSKLTVSYWRWVKGNVFSCSVMHEALHNHYTQKSLSLSPG light: not shown
